The values that follow come from IntAct's records for PubMed 16832058.

The chains are these.
B1: Proliferation-associated protein 2G4 (Homo sapiens), Q9UQ80 (parent)
chain: MSGEDEQQEQTIAEDLVVTKYKMGGDIANRVLRSLVEASSSGVSVLSLCEKGDAMIMEETGKIFKKEKEMKKGIAFPTSISVNNCVCHFSPLKSDQDYILKEGDLVKIDLGVHVDGFIANVAHTFVVDVAQGTQVTGRKADVIKAAHLCAEAALRLVKPGNQNTQVTEAWNKVAHSFNCTPIEGMLSHQLKQHVIDGEKTIIQNPTDQQKKDHEKAEFEVHEVYAVDVLVSSGEGKAKDAGQRTTIYKRDPSKQYGLKMKTSRAFFSEVERRFDAMPFTLRAFEDEKKARMGVVECAKHELLQPFNVLYEKEGEFVAQFKFTVLLMPNGPMRITSGPFEPDLYKSEMEVQDAELKALLQSSASRKTQKKKKKKASKTAENATSGETLEENEAGD

In the test the parent is B1. Particulars: with erbb3_rat Erbb3, Q62799.
erbb3_rat Erbb3, Q62799, sequence (Q62799 whole entry): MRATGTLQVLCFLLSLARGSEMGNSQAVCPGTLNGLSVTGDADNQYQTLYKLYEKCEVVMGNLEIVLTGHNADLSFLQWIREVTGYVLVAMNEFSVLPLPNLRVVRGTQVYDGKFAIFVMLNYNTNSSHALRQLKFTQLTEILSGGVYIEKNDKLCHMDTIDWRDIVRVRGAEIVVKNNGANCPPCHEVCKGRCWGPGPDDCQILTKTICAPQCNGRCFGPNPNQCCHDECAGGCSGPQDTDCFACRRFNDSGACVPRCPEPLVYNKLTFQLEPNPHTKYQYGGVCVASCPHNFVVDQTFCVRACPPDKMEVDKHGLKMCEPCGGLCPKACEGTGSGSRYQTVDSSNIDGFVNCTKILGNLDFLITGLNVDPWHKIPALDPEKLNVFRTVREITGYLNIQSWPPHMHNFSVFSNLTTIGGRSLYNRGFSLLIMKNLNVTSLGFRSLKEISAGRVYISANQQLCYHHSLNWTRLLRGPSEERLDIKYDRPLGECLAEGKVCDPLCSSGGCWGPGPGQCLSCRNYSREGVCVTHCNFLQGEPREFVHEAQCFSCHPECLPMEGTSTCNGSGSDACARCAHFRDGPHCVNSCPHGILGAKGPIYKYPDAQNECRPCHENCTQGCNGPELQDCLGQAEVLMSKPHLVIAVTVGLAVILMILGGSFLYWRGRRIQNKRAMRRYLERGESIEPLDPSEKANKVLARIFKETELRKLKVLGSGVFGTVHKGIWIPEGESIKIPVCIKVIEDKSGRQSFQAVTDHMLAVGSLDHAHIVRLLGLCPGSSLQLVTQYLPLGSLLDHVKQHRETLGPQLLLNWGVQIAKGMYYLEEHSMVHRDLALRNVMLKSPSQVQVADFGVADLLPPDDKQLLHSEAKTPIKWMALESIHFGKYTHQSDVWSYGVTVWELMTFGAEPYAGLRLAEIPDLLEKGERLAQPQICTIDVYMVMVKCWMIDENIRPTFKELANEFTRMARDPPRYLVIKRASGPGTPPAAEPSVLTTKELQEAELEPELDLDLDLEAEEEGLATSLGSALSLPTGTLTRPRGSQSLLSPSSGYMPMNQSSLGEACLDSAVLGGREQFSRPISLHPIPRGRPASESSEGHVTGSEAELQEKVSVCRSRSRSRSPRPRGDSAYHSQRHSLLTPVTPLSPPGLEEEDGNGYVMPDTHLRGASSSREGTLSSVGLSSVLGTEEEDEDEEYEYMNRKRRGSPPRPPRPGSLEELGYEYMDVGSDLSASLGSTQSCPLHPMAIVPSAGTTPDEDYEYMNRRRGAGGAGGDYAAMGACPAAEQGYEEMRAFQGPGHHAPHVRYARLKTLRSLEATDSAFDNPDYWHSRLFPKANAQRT
For the variant MSGEDEQQEQTIAEDLVVTKYKMGGDIANRVLRSLVEASSSGVSVLSLCEKGDAMIMEETGKIFKKEKEMKKGIAFPTSISVNNCVCHFSPLKSDQDYILKEGDLVKIDLGVHVDGFIANVAHTFVVDVAQGTQVTGRKADVIKAAHLCAEAALRLVKPGNQNTQVTEAWNKVAHSFNCTPIEGMLSHQLKQHVIDGEKTIIQNPTDQQKKDHEKAEFEVHEVYAVDVLVSSGEGKAKDAGQRTTIYKRDPSKQYGLKMKTSRAFFSEVERRFDAMPFTLRAFEDEKKARMGVVECAKHELLQPFNVLYEKEGEFVAQFKFTVLLMPNGPMRITSGPFEPDLYKSEMEVQDAELKALLQASASRKTQKKKKKKASKTAENATSGETLEENEAGD [S360A], the “effect of a mutation on the interaction” value is “disrupting interaction strength”.
